According to patent US20240424129A1, “RECOMBINANT FUSION ANTIBODY, AND ANTIBODY-DRUG CONJUGATE AND USE THEREOF” (SUN YAT-SEN UNIVERSITY, priority 2021, published 2024):
Non-standard residues stand in square brackets, D forms with d. Residues, ends and D or L forms follow the SMILES beside them. Dolaproine = CO[C@@H]([C@@H]1CCCN1)[C@@H](C)C(=O)O; Dil = CC[C@H](C)[C@H](NC)[C@@H](CC(=O)O)OC; NMeV = CN[C@H](C(=O)O)C(C)C

B1: Fused VHH7: anti-HER2 nanobody fused with lysosome-targeting peptide P7, SEQ ID NO: 39 (protein)
chain: EVQLVESGGGLVQAGGSLRLSCAASGITFSINTMGWYRQAPGKQRELVALISSIGDTYYADSVKGRFTISRDNAKNTVYLQMNCLKPEDTAVYYCKRFRTAAQGTDYWGQGTQVTVSSHHHHHHLPETGGGSDEDLLHI
B2: Fused VHH8: anti-HER2 nanobody fused with P7, His6 tag after the peptide, SEQ ID NO: 40 (protein)
VHH: EVQLVESGGGLVQAGGSLRLSCAASGITFSINTMGWYRQAPGKQRELVALISSIGDTYYADSVKGRFTISRDNAKNTVYLQMNCLKPEDTAVYYCKRFRTAAQGTDYWGQGTQVTVSSLPETGGGSDEDLLHIHHHHHH
modifications: linker, P7 peptide, His6 tag
B3: VHH0: non-fused anti-HER2 nanobody VHH-S84C-His6, SEQ ID NO: 32 (protein)
VHH: EVQLVESGGGLVQAGGSLRLSCAASGITFSINTMGWYRQAPGKQRELVALISSIGDTYYADSVKGRFTISRDNAKNTVYLQMNCLKPEDTAVYYCKRFRTAAQGTDYWGQGTQVTVSSHHHHHH
modifications: His6 tag
B4: VHH0-MMAF (conjugate)
VHH: B3 VHH
B5: Fused VHH7-MMAF (conjugate)
VHH: B1 chain
B6: Fused VHH8-MMAF (conjugate)
VHH: B2 VHH
B7: Fused VHH1-MMAF (conjugate)
VHH: EVQLVESGGGLVQAGGSLRLSCAASGITFSINTMGWYRQAPGKQRELVALISSIGDTYYADSVKGRFTISRDNAKNTVYLQMNCLKPEDTAVYYCKRFRTAAQGTDYWGQGTQVTVSSHHHHHHLPETGGGASVSLLDDELMSL
B8: Fused VHH2-MMAF (conjugate)
VHH: EVQLVESGGGLVQAGGSLRLSCAASGITFSINTMGWYRQAPGKQRELVALISSIGDTYYADSVKGRFTISRDNAKNTVYLQMNCLKPEDTAVYYCKRFRTAAQGTDYWGQGTQVTVSSHHHHHHLPETGGGRRRASVSLLDDELMSL

Tests used:
Type in all cases: cell-based, human
SKBR3 cells [1] = experiment: In-vitro cytotoxicity, CCK8 cell viability; settings: SKBR3, 48 h; for IC50: CCK8, mean n=3
Protocol: (§1) In this example, human breast cancer cell line SKBR3 with high expression of HER2 and human ovarian cancer cell line SKOV3 with high expression of HER2 were chosen to evaluate the ability of the recombinant-fusion-antibody-drug conjugates to inhibit the growth of cancer cells. The recombinant-fusion-antibody-drug conjugates of different concentrations were added to a 96-well plate seeded with SKBR3 or SKOV3 cells. After treatment for 48 h, the viability of cells was calculated using a CCK8 kit.
Cell viability was measured using different concentrations of MMAF, VHH0-MMAF, or different recombinant-fusion-nanobody-drug conjugates (fused VHH1-MMAF to fused VHH26-MMAF). The half-maximal inhibitory concentration IC50 was calculated (FIGS. 14A-14C, and Table 7). FIGS. 14A, 14B and 14C respectively show the viability of SKBR3 cells treated with the recombinant-fusion-nanobody-drug conjugates, including fused VHH1-MMAF to fused VHH6-MMAF, fused VHH7-MMAF to fused VHH22-MMAF, and fused VHH23-MMAF to fused VHH26-MMAF. […] Data are expressed as the mean (n=3).
(§2) SKBR3 and SKOV3 cells were chosen to evaluate the ability of the recombinant-fusion-full-length-antibody-drug conjugates to inhibit the growth of cancer cells. […] The half-maximal inhibitory concentration IC50 was calculated.

SKOV3 cells = experiment: In-vitro cytotoxicity, CCK8 cell viability; settings: SKOV3, 48 h, CCK8, mean n=3; Table 9
Protocol: as §1, §2

MDA-MB-231 cells = experiment: In-vitro cytotoxicity, HER2-negative negative control; settings: MDA-MB-231, FIG. 15
Protocol: as §1
In addition, in this example, the HER2-negative MDA-MB-231 cells were chosen as a negative control to compare the ability of fused VHH7-MMAF, fused VHH8-MMAF, VHH0-MMAF, VHH0, and MMAF to inhibit the growth of cancer cells.

SKBR3 cells [2] = experiment: Colocalization of recombinant fusion antibodies with lysosomes by confocal laser scanning microscopy; settings: TAMRA-labeled, 4 h, SKBR3, LysoTracker Green; compared with non-fused VHH0
Description: Confocal laser scanning microscope (CLSM) was used to analyze the colocalization of the recombinant fusion antibodies with the lysosome. The antibody-drug conjugate would be transported and processed in the endocytotic pathway as follows: once the antibody-drug conjugate binds to the cell-surface tumor antigen, it is internalized into endosomes, which subsequently mature and fuse with lysosomes. In the lysosomes, the acidic environment and specific proteases (e.g., cathepsin B) degrade the ADC, thus leading to the release of the drug. The free drug traverses the lysosomal membrane, reaches the cytosol and binds to its target, such as microtubule or DNA, thus ultimately triggering cell death. Therefore, the efficacy of an antibody-drug conjugate relies on its internalization and lysosomal trafficking.
In this example, SKBR3 cells were treated with TAMRA-labeled antibodies, including VHH0, fused VHH1-VHH26, mAb0, or fused mAb1-mAb3, for 4 h. The nuclei of SKBR cells were stained by Hoechst 33342 and the lysosomes of cells were stained by LysoTracker Green. The lysosome-trafficking activity of VHH0, fused VHH1-VHH26, mAb0, and fused mAb1-mAb3 was evaluated by confocal laser scanning microscopy. All images were presented under identical conditions. For quantitative analysis, the same threshold value was set for all images.

SKBR3 cells [3] = experiment: Internalization of TAMRA-labeled recombinant fusion antibodies by flow cytometry; settings: 2 μM, 6 h, acid wash, compared with non-fused VHH0
Protocol: The recombinant fusion antibody was labeled a fluorescent molecule and the internalization activity of the labeled antibody was evaluated by flow cytometry.
The procedure included the following steps: First, 5 mM tris (2-carboxyethyl) phosphine (TCEP; Thermo Fisher Scientific) was added to reduce the sulfhydryl group of VHH0 and fused VHH1-VHH26 respectively for approximately 30 min at room temperature, then TCEP was removed by buffer-exchanging with PBS containing 1 mM ethylenediaminetetraacetic acid (EDTA). Next, 2 eq of Maleimide-PEG3-TAMRA was added to the antibody solution and the resulting solution was incubated at 4° C. for 2 h. Lastly, the excess small molecules were removed by buffer-exchanging to obtain TAMRA-labeled VHH0 and fused VHH1-VHH26.
In this example, SKBR3, a human breast cancer cell line with a high expression level of HER2, was used as a model system. […] SKBR3 cells were incubated with TAMRA-labeled antibodies for 6 h, and subsequently washed with acid to remove bound antibodies on the cell membrane, and the fluorescence intensity was analyzed by flow cytometry.

Molecule	IC50 (SKBR3 cells [1]; Table 7)	cytotoxicity in HER2-negative cells (MDA-MB-231 cells)	also measured
CC[C@H](C)[C@@H]([C@@H](CC(=O)N1CCC[C@H]1[C@H](OC)[C@@H](C)C(=O)N[C@@H](Cc1ccccc1)C(=O)O)OC)N(C)C(=O)[C@@H](NC(=O)[C@@H](NC)C(C)C)C(C)C [MMAF, monomethyl auristatin F, reference compound] (H-[NMeV]V[Dil][Dolaproine]F-OH)	53.2 nM	significant cell death	maximal killing (SKBR3 cells [1]; CCK8): about 50%; IC50 (SKBR3 cells [1]; Table 8): 37.4 nM; IC50 (SKOV3 cells): 37.4 nM
B1			colocalization of nanobodies with lysosomes / lysosomal trafficking (SKBR3 cells [2]): No significant difference in lysosomal trafficking; internalization ability of nanobodies (mean cell fluorescence) (SKBR3 cells [3]): no significant difference in the internalization ability between fused VHH7 and fused VHH8
B2			colocalization of nanobodies with lysosomes / lysosomal trafficking (SKBR3 cells [2]): No significant difference in lysosomal trafficking; internalization ability of nanobodies (mean cell fluorescence) (SKBR3 cells [3]): no significant difference in the internalization ability between fused VHH7 and fused VHH8
B3		none of the substances are cytotoxic	viability of the treated cells (SKBR3 cells [1]; CCK8): approximately 100%
B4	1.57 nM	none of the substances are cytotoxic	maximal killing (SKBR3 cells [1]; CCK8): about 50%
B5	0.336 nM	none of the substances are cytotoxic	
B6	0.319 nM	none of the substances are cytotoxic	
B7	1.34 nM		
B8	0.126 nM		
